Paper PMC11557686

B1: SmBiT-SEC24A [not stated] / LgBiT-SURF4 [not stated] (parent)
chain 1: MSQPGIPASGGAPASLQAQNGAALASGSPYTNGPVQNALLSSQESVSQGYNFQLPGSYPHPIPAKTLNPVSGQSNYGGSQGSGQTLNRPPVASNPVTPSLHSGPAPRMPLPASQNPATTPMPSSSFLPEANLPPPLNWQYNYPSTASQTNHCPRASSQPTVSGNTSLTTNHQYVSSGYPSLQNSFIKSGPSVPPLVNPPLPTTFQPGAPHGPPPAGGPPPVRALTPLTSSYRDVPQPLFNSAVNQEGITSNTNNGSMVVHSSYDEIEGGGLLATPQLTNKNPKMSRSVGYSYPSLPPGYQNTTPPGATGVPPSSLNYPSGPQAFTQTPLGANHLTTSMSGLSLQPEGLRVVNLLQERNMLPSTPLKPPVPNLHEDIQKLNCNPELFRCTLTSIPQTQALLNKAKLPLGLLLHPFKDLVQLPVVTSSTIVRCRSCRTYINPFVSFLDQRRWKCNLCYRVNDVPEEFLYNPLTRVYGEPHRRPEVQNATIEFMAPSEYMLRPPQPPVYLFVFDVSHNAVETGYLNSVCQSLLDNLDLLPGNTRTKIGFITFDSTIHFYGLQESLSQPQMLIVSDIEDVFIPMPENLLVNLNESKELVQDLLKTLPQMFTKTLETQSALGPALQAAFKLMSPTGGRMSVFQTQLPTLGVGALKPREEPNHRSSAKDIHMTPSTDFYKKLALDCSGQQVAVDLFLLSGQYSDLASLGCISRYSAGSVYYYPSYHHQHNPVQVQKLQKELQRYLTRKIGFEAVMRIRCTKGLSIHTFHGNFFVRSTDLLSLPNVNPDAGYAVQMSVEESLTDTQLVSFQSALLYTSSKGERRIRVHTLCLPVVSTLNDVFLGADVQAISGLLANMAVDRSMTASLSDARDALVNAVIDSLSAYRSSVLSNQQPGLMVPFSLRLFPLFVLALLKQKSFQTGTNARLDERIFAMCQVKNQPLVYLMLTTHPSLYRVDNLSDEGALNISDRTIPQPPILQLSVEKLSRDGAFLMDAGSVLMLWVGKNCTQNFLSQVLGVQNYASIPQPMTDLPELDTPESARIIAFISWLREQRPFFPILYVIRDESPMKANFLQNMIEDRTESALSYYEFLLHIQQQVNK
chain 2: MGQNDLMGTAEDFADQFLRVTKQYLPHVARLCLISTFLEDGIRMWFQWSEQRDYIDTTWNCGYLLASSFVFLNLLGQLTGCVLVLSRNFVQYACFGLFGIIALQTIAYSILWDLKFLMRNLALGGGLLLLLAESRSEGKSMFAGVPTMRESSPKQYMQLGGRVLLVLMFMTLLHFDASFFSIVQNIVGTALMILVAIGFKTKLAALTLVVWLFAINVYFNAFWTIPVYKPMHDFLKYDFFQTMSVIGGLLLVVALGPGGVSMDEKKKEW

Variants of: B1
Assay: NanoBiT
Conditions: with LgBiT-SURF4; six technical replicates in each of three independent biological replicates; parent: 1; read off a plot
chain 1 K813A was tested, and the ratio to parent was 0.98. chain 1 R541A showed a ratio to parent of 1. With chain 1 Y437A the ratio to parent was 0.62. chain 1 R750A R752A gave a ratio to parent of 0.5.
